From paper PMC10766600

How the values were obtained:
[1] = biological target: bacteriophage T5 capsid-like particles (T5 CLPs) (bacteriophage T5)
[2] = biological target: bacteriophage T5 capsid-like particles (T5 CLPs) (bacteriophage T5); experiment: cryo-EM structure; pNO-decorated CLPs, 200 kV Glacios, icosahedral (I4) reconstruction from 10,449 particles, 5.8 Å

Chain of pNO: N-terminal capsid-binding domain pN of pb10 fused at its C-terminal end with ovalbumin (Q6QGD6 whole entry, the tested form may be a part): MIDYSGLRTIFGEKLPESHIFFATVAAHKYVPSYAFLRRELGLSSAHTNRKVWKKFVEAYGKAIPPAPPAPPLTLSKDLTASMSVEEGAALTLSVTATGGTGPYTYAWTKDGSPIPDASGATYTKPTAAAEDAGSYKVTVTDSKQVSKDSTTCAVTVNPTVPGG
Chain of pO: full-length pb10 fused at its C-terminal end with ovalbumin (Q6QGD6 whole entry, the tested form may be a part): as above

Row | anti-Ova IgG (ELISA) in sera of C57BL/6 mice after a single subcutaneous injection of CLP-bound pNO against pNO alone, days 14 to 192 post-injection [1] [fold] | stoichiometry N (copies per capsid) [2] | anti-Ova IgG (ELISA) in sera of C57BL/6 mice after a single subcutaneous injection of CLP-bound pO against pO alone, days 14 to 192 post-injection [1] [fold] | Substance
1 | 1000 | 120 |  | pNO: N-terminal capsid-binding domain pN of pb10 fused at its C-terminal end with ovalbumin (from UniProt Q6QGD6 1-73)
2 |  |  | 1000 | pO: full-length pb10 fused at its C-terminal end with ovalbumin (from UniProt Q6QGD6 1-164)
